Test results published in US8119572B2, “Methods for determining protein binding specificity using peptide libraries” (Wisconsin Alumni Research Foundation, priority 2005, dated 2012).
No end group written: not given here.

Molecular target: T1, SIRT1 (Homo sapiens, UniProt Q96EB6)
T1 construct: made in house
T1 sequence (Q96EB6 1-747): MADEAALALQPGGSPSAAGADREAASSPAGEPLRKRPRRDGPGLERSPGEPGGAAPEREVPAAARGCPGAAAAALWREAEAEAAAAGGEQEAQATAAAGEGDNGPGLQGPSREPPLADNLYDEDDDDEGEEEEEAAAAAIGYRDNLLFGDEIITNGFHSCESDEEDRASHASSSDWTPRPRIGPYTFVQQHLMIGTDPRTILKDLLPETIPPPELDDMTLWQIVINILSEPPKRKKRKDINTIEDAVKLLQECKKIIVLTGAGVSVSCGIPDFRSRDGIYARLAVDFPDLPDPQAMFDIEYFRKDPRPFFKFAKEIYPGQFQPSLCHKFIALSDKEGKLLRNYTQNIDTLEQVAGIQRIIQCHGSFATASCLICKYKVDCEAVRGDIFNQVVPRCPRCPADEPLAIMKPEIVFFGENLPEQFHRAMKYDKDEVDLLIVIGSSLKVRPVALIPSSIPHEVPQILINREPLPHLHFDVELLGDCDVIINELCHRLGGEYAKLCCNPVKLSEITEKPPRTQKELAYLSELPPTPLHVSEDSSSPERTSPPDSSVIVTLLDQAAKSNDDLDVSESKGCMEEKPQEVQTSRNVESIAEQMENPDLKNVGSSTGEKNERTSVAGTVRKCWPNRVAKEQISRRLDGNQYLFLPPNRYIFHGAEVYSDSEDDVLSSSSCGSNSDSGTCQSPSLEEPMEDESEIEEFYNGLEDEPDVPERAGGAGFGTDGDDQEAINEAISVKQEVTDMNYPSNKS
Test: Radioactive TLC-based [32P]-NAD+ in-solution kinetic analysis of resynthesized hits and non-hits
Assay type: biochemical
Settings: for fold difference in catalytic activity in favor over WP(AcK)QQ: compared with WP(AcK)QQ, Table 3 values
Protocol: All solution phase Sir2 assays were carried out at 25° C. in 50 mM Tris.HCl. Reactions were done in 50-100 μL with 0.1-1.5 μM enzyme, 0.1-1.2 mM NAD^+, 0.5-1000 μM peptide and 1 mM DTT. Reaction mixtures were quenched with TFA to a final concentration of 1% after 5-10 min and nicotinamide levels were quantitated by HPLC at 264 nm.
Alternatively, [^32P]-NAD^+ (10 mCi/mL) was used in assays and quenched reaction mixtures were spotted on a silica TLC plate and run in a chamber containing 60% ethanol and 40 2.5 mM ammonium acetate for 3-4 hours. Levels of ^32P-OAADPr and ^32P-NAD^+ were then quantitated by phosphorimaging and the fraction turnover was calculated. Saturation curves were done at varying concentrations of peptide while holding that of NAD^+ constant. Time points were chosen such that product formation never exceeded 20% conversion and data were plotted as rate (s^−1) vs. peptide concentration. Plots were fitted to the Michaelis-Menten equation, v=[(kcat/Km)[S]]/(1+[S]/Km) using Kaleidagraph software (Reading, Pa.) to extract Km and kcat/Km.
To validate the results of the library screen, select hits and non-hits were resynthesized and subjected to in-solution kinetic analysis (Table 3). A radioactive TLC-based assay was employed with subsaturating levels of [^32P]-NAD^+ to determine the relative catalytic efficiencies (Jackson et al., 2003, J. Biol. Chem. 278: 50985-50998). In addition, two “consensus” peptides containing residues occurring with the highest and lowest frequency at each position, independent of context, were analyzed. For comparison, a 5-mer comprised of a sequence corresponding to a known site for p53 deacetylation by SIRT1 was assayed (Table 3).
In Table 3, efficiencies (^x=average) were obtained by fitting the data from [^32P]-NAD^+ assays to the modified Michaelis-Menten equation, v=[(kcat/Km)[S]]/(1+[S]/Km). […] Catalytic efficiencies of peptides containing the residues of the highest^b/lowest^c frequency at each position and the sequence relevant to p53 deacetylation in vivo^d are shown for comparison.

| catalytic activity, comparison of hits and non-hits in words (in-solution kinetic analysis) | fold difference in catalytic activity in favor over WP(AcK)QQ | Substance |
| --- | --- | --- |
| comparable to those of a few of the hits |  | AY(AcK)EV (Ac-AYK(Ac)EV) [resynthesized select non-hit] |
|  | 18 fold | QP(AcK)QI (Ac-QPK(Ac)QI) [resynthesized select hit of SIRT1 library screen] |
|  | seven | WH(AcK)QQ (Ac-WHK(Ac)QQ) |
